Assay results from patent US7094548B2, “Purification of recombinant proteins fused to multiple epitopes” (Sigma-Aldrich Co., priority 1999, dated 2006).

Legend:
[1] = target: 3XFLAG-BAP (bacterial alkaline phosphatase with the triple FLAG sequence at the N-terminus) (E. coli) [phosphatase: P00634]; test: ELISA
[2] = target: 3XFLAG-BAP (bacterial alkaline phosphatase with the triple FLAG sequence at the N-terminus) (E. coli) [phosphatase: P00634]; test: dot blot
[3] = target: 3XFLAG-BAP (bacterial alkaline phosphatase with the triple FLAG sequence at the N-terminus) (E. coli) [phosphatase: P00634]; test: western blot, M2 at 10 ug/ml, chemiluminescence, longer exposure
[4] = target: 3XFLAG-BAP (bacterial alkaline phosphatase with the triple FLAG sequence at the N-terminus) (E. coli) [phosphatase: P00634]; test: western blot, M2 at 10 ug/ml, chemiluminescence
[5] = tested on: anti-FLAG M2 affinity gel; test: Competitive elution from anti-FLAG M2 affinity gel; format: binding; conditions: for competitive elution from anti-FLAG M2 affinity gel using 3XFLAG peptide: competitor: 3XFLAG peptide
[6] = tested on: FLAG M2 antibody; test: Isothermal titration calorimetry of M2 antibody binding to FLAG epitopes; conditions: 25° C., PBS containing 0.05% sodium azide, for 3XFLAG system r>1000, accurate Ka can not be determined, in M-1 (unit assumed)
Protocol: Thermodynamic analysis of the M2 antibody binding to the FLAG epitopes was measured by isothermal titration calorimetry using an OMEGA calorimeter (Microcal). All samples were dialyzed against PBS containing 0.05% sodium azide and degassed prior to the measurements. All measurements were made at 25° C. The concentration of M2 antibody was between 15 and 50 uM depending upon which samples were used. The concentration of the titrants were 605 uM for the 1X BAP, 1110 uM for the 1X FLAG peptide, 400 uM for the 3X BAP, and 580 uM for the 3XFLAG peptide. Injections were carried out every 2.5 to 3.0 minutes which was sufficient for baseline to be achieved with injection volumes ranging from 4 to 11 uL. Injections were carried out over a 4 to 10 second period while stirring at 400 rpm. Data analysis and fitting were performed using the Origin software supplied by MicroCal. The enthalpies were obtained by numerical integration of the data and subtraction of the heats of dilution. Values of Ka, n the number of binding sites were determined by fitting the data to a theoretical curve with only the enthalpy was held constant during the fitting process.

[7] = tested on: M2 antiFLAG antibody; test: Western blot of purified FLAG-BAP probed with M2 anti-FLAG antibody, chemiluminescent detection; format: binding
Protocol: E. coli BL21 (DE3) were transformed with the expression plasmid containing the triple FLAG BAP construct made according to the methods of Example 1. Cells were grown in terrific broth containing 100 μg/ml ampicillin at 37° C. with agitation. The culture was grown to an OD600=4.0 and then induced with IPTG at a final concentration of 1 mM. The cell culture was grown for an additional 3 hours at 37° C. and then harvested by centrifugation. The cell pellet was resuspended in 50 mM Tris-HCl. pH 8.0 and the cells disrupted by sonication and cellular debris removed by centrifugation. The supernatant was applied to M2 affinity gel was equilibrated with 50 mM Tris-HCI pH 8.0, 150 mM NaCl (TBS). The resin was washed with 20 bed volumes of TBS and then the triple FLAG BAP was eluted with five column volumes of 0.1 M Glycine pH 3.5.
The eluted protein was pooled and adjusted to pH 7.5 with 1.0 M Tris-HCl pH 8.0. Protein content was determined by both Bradford and by absorbance using ε280=0.7ml/mg.
Purified 3XFLAG-BAP and N-BAP were diluted with to 2X Laemlli buffer, boiled for five minutes and then placed on ice. Samples were resolved on a 15% SDS-PAGE using the method of Laemlli (Laemli, V., Nature, 227:680–685 (1970)) and then transferred to nitrocellulose membranes. The membrane was blocked with phosphate buffered saline containing 3% non-fat dry milk for 1 hour and then rinsed three times in TBS, 0.05% Tween 20 (TBS-T). The membrane was incubated with M2 antibody at a final concentration of 10 μg/ml for 30 minutes in TBS-T and then rinsed three times in TBS-T. The membrane was then incubated for 30 minutes with a goat […] IgG (whole molecule) Horseradish peroxidase(HRP) conjugate diluted 1:10,000 in TBS-T then rinsed three times in TBS-T. The FLAG tagged protein were detected with the HRP conjugates and visualized by chemilumenescent detection using ECL (Amersham) and Kodak X-Omat MR film according to manufacturer's directions with exposures from 1 to 30 minutes.

Molecule | fold increase in detection against single FLAG [1] [fold] | fold increase in detection against single FLAG [2] [fold] | amount detected [3] [picograms] | amount detected [4] [picograms] | fold increase in detection limit against single FLAG-BAP [4] [fold] | competitive elution from anti-FLAG M2 affinity gel using 3XFLAG peptide [5] | elution from anti-FLAG M2 affinity gel by competition with the original FLAG peptide ([5]; competitor: original FLAG peptide) | Ka (association constant) [6] | amount of purified protein detected ([7]; exposures as short as 1 minute) [picograms] | amount of purified protein detected ([7]; increased exposure time, with increased background) [picograms] | increase in detection limit compared to the single FLAG-BAP fusion protein ([7]; western blot, M2 antibody, chemiluminescence) [fold]
anti-FLAG M2 monoclonal antibody | > 10 | > 10 | 100 | 500 | 10 | – | – | – | – | – | –
3XBAP: triple FLAG version of bacterial alkaline phosphatase expressed in E. coli from p3XFLAG-ATS-BAP and purified on M2 affinity gel (protein) MDYKDHDGDYKDHDIDYKDDDDKMPVLENRAAQGDITAPGGARRLTGDQTAALRDSLSDKPAKNIILLIGDGMGDSEITAARNYAEGAGGFFKGIDALPLTGQYTHYALNKKTGKPDYVTDSAASATAWSTGVKTYNGALGVDIHEKDHPTILEMAKAAGLATGNVSTAELQDATPAALVAHVTSRKCYGPSATSEKCPGNALEKGGKGSITEQLLNARADVTLGGGAKTFAETATAGEWQGKTLREQAQARGYQLVSDAASLNSVTEANQQKPLLGLFADGNMPVRWLGPKATYHGNIDKPAVTCTPNPQRNDSVPTLAQMTDKAIELLSKNEKGFFLQVEGASIDKQDHAANPCGQIGETVDLDEAVQRALEFAKKEGNTLVIVTADHAHASQIVAPDTKAPGLTQALNTKDGAVMVMSYGNSEEDSQEHTGSQLRIAAYGPHAANVVGLTDQTDLFYTMKAALGLK | – | – | – | – | – | can be competitively eluted | cannot be eluted | 2.09E+08 | 500 | 100 | 10
1XBAP: bacterial alkaline phosphatase fusion protein containing the traditional FLAG epitope (DYKDDDDK), expressed in E. coli and purified (protein) DYKDDDDKMPVLENRAAQGDITAPGGARRLTGDQTAALRDSLSDKPAKNIILLIGDGMGDSEITAARNYAEGAGGFFKGIDALPLTGQYTHYALNKKTGKPDYVTDSAASATAWSTGVKTYNGALGVDIHEKDHPTILEMAKAAGLATGNVSTAELQDATPAALVAHVTSRKCYGPSATSEKCPGNALEKGGKGSITEQLLNARADVTLGGGAKTFAETATAGEWQGKTLREQAQARGYQLVSDAASLNSVTEANQQKPLLGLFADGNMPVRWLGPKATYHGNIDKPAVTCTPNPQRNDSVPTLAQMTDKAIELLSKNEKGFFLQVEGASIDKQDHAANPCGQIGETVDLDEAVQRALEFAKKEGNTLVIVTADHAHASQIVAPDTKAPGLTQALNTKDGAVMVMSYGNSEEDSQEHTGSQLRIAAYGPHAANVVGLTDQTDLFYTMKAALGLK | – | – | – | – | – | can be competitively eluted | – | 1.69E+07 | – | – | –
